Experimental data published in the nanobody polyreactivity screen of Harvey et al. (2022).

Test: yeast display, Sf9 membrane polyspecificity reagent, FACS + sequencing; frameworks hold sequencing errors
In short: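 Genes from sorted yeast were amplified by colony PCR, read by MiSeq 2 × 250 sequencing and filtered on CDR length. These cells carried a synthetic nanobody library in Saccharomyces cerevisiae BJ5465 and were sorted by FACS into low and high (top ~1%) gates on anti-HA and streptavidin fluorescence. Polyreactivity is labelled according to the gate of origin.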

| Sequence | polyreactivity (PSR sort gate) |
| --- | --- |
| QVQLVESGGGLVQAGGSLRLSCAASGLTFGNYAMGWYRQAPGKERELVAAISWGGGITYYADSVKGRFTISRDNAKNTVYLQMNSLKPEDTAVYYCAADVYFKSTPEYLYDYWGQGTQVTVSS | low polyreactivity |
| QVQLVESGGGLVQAGGSLRLSCAASGLTFGPNAMGWYRQAPGKERELVAAITKSGGSTYYADSVKGRFTISRDNAKNTVYLQMNSLKPEDTAVFYCAARAGYKVFGYWGQGTQVTVSS | high polyreactivity |
| QVQLVESGGGLVQAGGSLRLSCAASGLTFGPYAMGWYRQAPGKERELVAAISLSDTDTYYAASVKGRFTISRDNAKNTGYLQMNSLKPEDTAVYYCAAEDGGLYDYWGQGTQVTVSA | high polyreactivity |
| QVQLVESGGGLVQAGGSLRLSCAASGLTFGRNAMGWYRQAPGKERELVAAISQSGDRTYYADSVKGRFTISRDNAKNTVYLQMNSLKPEDTAVYYCNAVSSRGWYDYWGQGTQVTLSS | high polyreactivity |
| QVQLVESGGGLVQAGGSLRLSCAASGLTFGRNAMGWYRQAPGKERELVAAISRSGGRTSYADSVKGRFTISRDNAKNTVYLQMNSLKPEDTAVYYCAARSDVYTHDYWGQGTQVTVSS | high polyreactivity |
| QVQLVESGGGLVQAGGSLRLSCAASGLTFGRNAMGWYRQAPGKERELVAAITFNGGSTYYADSVKGRFTISRDNAKNTVYLQMNSLKPEDTAVYYCAARLWRRSRFDYWGQGTQVTVSS | high polyreactivity |
| QVQLVESGGGLVQAGGSLRLSCAASGLTFGVYAMGWYRQAPGKERELVASIRSGGSTYYADSVKGRFTISRDNAKNTVYLQMNSLKPEDTAVYYCAKGTFDLHYRKRYNYWGQGTQVTVSS | low polyreactivity |
| QVQLVESGGGLVQAGGSLRLSCAASGLTFGWYTMGWYRQAPGKERELVAAISWSGGSTYYADSVKGRFTISRDNAKNTVYLQMNSLKPEDTAVYYCAADQSTVLDVGSWGQGTQVTVSS | low polyreactivity |
| QVQLVESGGGLVQAGGSLRLSCAASGLTFGWYTMGWYRQAPGKERELVADITWSGGSTYYADSVKGRFTISRDNAKNTVYLQMNSLKPEDTAVYYCAVRYFVIPWYAYDYWGQGTQVTVSS | low polyreactivity |
| QVQLVESGGGLVQAGGSLRLSCAASGLTFGYNAMGWYRQAPGKERELVAAITYGGGRTYYADSVKGRFTISRDNAMNTVYLQMNSLKPEDPAVYYCNVVWKAYAEYDYWGQGTQVTVSS | high polyreactivity |
| QVQLVESGGGLVQAGGSLRLSCAASGLTFGYNAMGWYRQAPGNERELVATISYSGGRTYYADSVKGRFTISRDNAKTTVYLQMNSLKPEDTAVYDCATRQRHWSGEFDYWGQGTQVTVSS | high polyreactivity |
| QVQLVESGGGLVQAGGSLRLSCAASGLTFHAYAMGWYRQAPGKEREFVAAITRSGSSTSYAYSVKGRFTISRDNAKNTVYLQMNSLKPEDTAVYYCAAQGSRKYRNDYWGQGTQVTVSS | high polyreactivity |
| QVQLVESGGGLVQAGGSLRLSCAASGLTFHPYAMGWYRQAPGKERELVAAISSRGTSTYYADSVKGRFTISRDNAKNTVYLQMNSLKPEDTAVYYCAARHGPRAEAMYYWGQGTQVTVSS | high polyreactivity |
| QVQLVESGGGLVQAGGSLRLSCAASGLTFHQNAMGWYRKAPGKDRELVAAISRRGGSTYYADSVKGRFTFSRDNAKNTVYLQMNSLKPEDTAVYYSNTRGKSGLWCYNYWGQGTQVTVSS | high polyreactivity |
| QVQLVESGGGLVQAGGSLRLSCAASGLTFHRYAMGWYRQAPGKERELVAAINYSGGRTYYADSVKGRFTISRDNAKNTVYLQMNSLKPEHTAVYYCAAPRASGYYWGQGTQVTVSS | high polyreactivity |
| QVQLVESGGGLVQAGGSLRLSCAASGLTFHWYTMGGYRQAPGKERELVAAISSRGGSTYYADSVKGRFTISRDNAKNTDYLQMNSLKPEDTAVYYCAKARRVGFTPIYENWGQGTQVTVSS | high polyreactivity |

| Sequence | polyreactivity (PSR sort gate) |
| --- | --- |
| QVQLVESGGGLVQAGGSLRLSCAASGLTFIFNAMGWYRQAPGKERELVADISSGVNTNYADSVKGRFTISRDNAKNTVYLQMNSLKPEDTAVYYCNARRYWLRYDYWGQGTQVTVSS | low polyreactivity |
| QVQLVESGGGLVQAGGSLRLSCAASGLTFIPNAMGWYREAPGKERELVAAISGTGGSTYYADSVKGRFTISRDNAKNTVYLLMNSLKPEDTAVYYCAARRRYKSGYWGQGTQVTVSS | high polyreactivity |
| QVQLVESGGGLVQAGGSLRLSCAASGLTFIYYAMGWYRQAPGKERELVAAISVSGGSTYYADSVKGRFTISRDNAKNTVYLQMNSLKPEDTAVYYCAADWFVHKPRYQYSFDYWGQGTQVTVSS | low polyreactivity |
| QVQLVESGGGLVQAGGSLRLSCAASGLTFKSYAMGWYRQAPGKERELVAAISWRGGRTYYADSVKGRFTISRDNAKNTVYLQMNSLKPEDTAVYYSNARSQQWWLSRYNYWGQGTQVTVSS | high polyreactivity |
| QVQLVESGGGLVQAGGSLRLSCAASGLTFKSYTMGWYRQAPGKERELVATISGSGTRTYYADSVKGRFTISRDNAKNTVYLQMNSLKPEDTAVYYCARVIWYNNYFRYSGYRSDYWGQGTQVTVSS | high polyreactivity |
| QVQLVESGGGLVQAGGSLRLSCAASGLTFKVYDMGGYRQAPGKERELVAAIWSDGDTYYADSVKGRFTISRDNAKNTVYLQMNSLKPEDTAVYYCAADPVWTVHFVFGNKYDYWGQGTQVTVSS | low polyreactivity |
| QVQLVESGGGLVQAGGSLRLSCAASGLTFKWNTMGWYRQAPGKERELVAAISWRVVSTYYADSVKGRFTISRDNAKNTFYLQMNSLKQEDTAVYYDYWGQGTQVTVSS | low polyreactivity |
| QVQLVESGGGLVQAGGSLRLSCAASGLTFKWYAMGWYRPAPGKERELVAAISRDGSTYYADSVKGRFTISRDNAKNTVYLQMNSLKPEDTAVYNCAADIWPSSLLADEYDYWGQGTQVTVSS | high polyreactivity |
| QVQLVESGGGLVQAGGSLRLSCAASGLTFKYYAMGWYRQAPGKERELVAAISWRGGSTYYADSVKGRFTISRDNAKNTVYLQMNSLKPEDTAVYYCAAPGNNVRNAPRKRDYWGQGTQVTVSS | high polyreactivity |
| QVQLVESGGGLVQAGGSLRLSCAASGLTFLKNAMGWYRQAPGKERELVAAISDGGSTNYADSVKGRFTISRDNAKNTVYLQMNSLKPEDTAVYYCAAVYTSASYGSWGQGTQVTVSS | low polyreactivity |
| QVQLVESGGGLVQAGGSLRLSCAASGLTFLRNGMGWYRQAPGKERELVASITRSGARTYYADSVKGRFTISRDNAKNTVYLQMNSLKPEDTAVSYCAARAYVSHYGVSNFGDYYWGQGTQVTVSS | high polyreactivity |
| QVQLVESGGGLVQAGGSLRLSCAASGLTFNVYAMGWSRQAPGTERELVAALTSGGRTYYADSVKGRFTISRDNEKNTVYLQMNSLKPEDTAVYYCSKSRWYGYSLSGAKRQRSFDYWGQGTQVTVSS | high polyreactivity |
| QVQLVESGGGLVQAGGSLRLSCAASGLTFNYYAMGWYRQAPGKERDLVAASTSSGSSTYYADSVKGRFTISRDNAKNTVSLQMNSLKAEDTAVYYCAVSRCSFYWLVDYWGQGTQVTVSS | high polyreactivity |
| QVQLVESGGGLVQAGGSLRLSCAASGLTFNYYAMGWYRQAPGKERELVAAITSSGGRTYYADSVKGRFTISRDNAKNTFYLQMNSLKPEDTAVYYCNTVSYRQGAVWFRYDYWGQGTQVTVSS | high polyreactivity |
| QVQLVESGGGLVQAGGSLRLSCAASGLTFNYYAMGWYRQAPGKERELVASISKRGGTYYADSVKGRFTLSRDNAKNTVYLQMNSLKPEDTAVYYCAADYWFRRNEYDYWGQGTQVTVSS | high polyreactivity |
| QVQLVESGGGLVQAGGSLRLSCAASGLTFPDYAMGWYRQAPGKERELVAAITIDGSTYYADSVKGRFTISRDNAKNTVYLQMNSLTPEDTAVYYCNAQVGVPYAMYYWGQGTQVTVSS | low polyreactivity |
